Laboratory results reported in patent US7291458B2, “Leptin-mediated gene-induction” (Vlaams Interuniversitair Instituut Voor Biotechnologie VZW, priority 1998, dated 2007).

Test system: PC12 cells
Test: RDA of PC12 cells transiently transfected with pMET7-mLRlo
Assay type: cell-based, rat
Details: leptin-forskolin co-stimulated versus forskolin alone
Description: To search for genes regulated by leptin in the PC12 cell line, a RDA (representational difference analysis) experiment was performed using a modification of the original method (Hubank and Schatz, 1994). Using this procedure, it is possible to clone amplicons corresponding to transcripts from leptin-forskolin co-stimulated PC12 cells, transiently transfected with pMET7-mLRlo. After three rounds of subtraction/amplification, selectively amplified bands were purified and subcloned in the pCDNA3 or pCR-Blunt vector (Invitrogen). […] Based on this observation, a simple one-tube RT-PCR based procedure was set up to select for PC12 subclones, stably expressing the leptin receptor long isoform (FIG. 2 portion A). One stable clone, PC12-LR8, was chosen for further experiments (FIG. 2 portion B). Individual inserts from the cloned amplicon collection were radiolabeled and leptin-dependent gene regulation was verified and studied in more detail by Northern blot analysis on the PC12-LR8 cell line.
RDA was used to clone differentially expressed cDNAs from PC12 cells, transiently transfected with the leptin receptor long isoform, or from neuronal differentiated PC12-LR8 cells, which stably express the leptin receptor long isoform. In both cases, cloning was performed using mRNA from cells either stimulated with leptin+forskolin or with forskolin alone. […]

B1: leptin: mouse leptin (R&D Systems), ob gene product, used on PC12 cells at 100 ng/ml (protein)
chain: VPIQKVQDDTKTLIKTIVTRINDISHTQSVSAKQRVTGLDFIPGLHPILSLSKMDQTLAVYQQVLTSLPSQNVLQIANDLENLRDLLHLLAFSKSCSLPQTSGLQKPESLDGVLEASLYSTEVVALSRLQGSLQDILQQLDVSPEC
  induction of rat Pancreatitis Associated Protein I (rPAP I) transcript: strongly induced
